# Source: US20250074980A1 (BRIGHAM AND WOMEN S HOSPITAL, published 2025)
# Numbering of substitutions follows the chain as printed. In names and notes the source's numbering stands.
# T1: CEACAM6 (recombinant protein) (human, UniProt P40199 35-320)
# T1 construct: construct not described
# T1 sequence (looked up): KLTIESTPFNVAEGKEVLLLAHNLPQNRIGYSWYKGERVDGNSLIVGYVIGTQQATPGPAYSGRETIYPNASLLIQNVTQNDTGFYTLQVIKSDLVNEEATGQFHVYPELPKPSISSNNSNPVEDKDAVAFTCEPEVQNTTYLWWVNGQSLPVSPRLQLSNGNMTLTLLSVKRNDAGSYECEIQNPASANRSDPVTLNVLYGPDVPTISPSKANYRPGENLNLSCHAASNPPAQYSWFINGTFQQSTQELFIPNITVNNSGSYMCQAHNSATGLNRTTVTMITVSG
# T2: CEACAM3 (recombinant protein) (human, UniProt P40198 35-155, limits assumed)
# T2 construct: construct not described
# T2 sequence (looked up): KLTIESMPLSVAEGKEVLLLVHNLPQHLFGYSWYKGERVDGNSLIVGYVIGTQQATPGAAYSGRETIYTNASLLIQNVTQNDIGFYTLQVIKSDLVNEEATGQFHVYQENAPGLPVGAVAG
# T3: His-tagged CEACAM1 (human, UniProt P13688 35-428)
# T3 construct: 45 kDa SPR analyte; also called CEACAM1-HIS; CEACAM1 analyte
# T3 sequence: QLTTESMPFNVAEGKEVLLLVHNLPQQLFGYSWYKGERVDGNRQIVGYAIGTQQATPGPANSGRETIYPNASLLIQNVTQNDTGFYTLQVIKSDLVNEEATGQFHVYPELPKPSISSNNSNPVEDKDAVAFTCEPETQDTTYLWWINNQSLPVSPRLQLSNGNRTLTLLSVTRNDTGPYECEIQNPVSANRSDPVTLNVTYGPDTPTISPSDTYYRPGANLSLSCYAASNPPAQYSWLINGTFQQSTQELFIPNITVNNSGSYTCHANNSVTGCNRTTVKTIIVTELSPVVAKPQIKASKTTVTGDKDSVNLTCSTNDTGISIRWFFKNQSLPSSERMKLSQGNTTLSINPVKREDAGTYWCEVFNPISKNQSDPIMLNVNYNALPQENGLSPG
# B1: chimeric antibody VH0/Vκ0 (antibody, IgG4, V domains shown)
# VH: EVQLVESGGDLVKPGGSLKLACAASGFIFSSHGMSWVRQTPDKRLEWVATISSGGTYTYYPDSVKGRFTISRDNDKNTLYLQMNSLKSEDTAMYYCARHDFDYDAAWFAYWGQGTLVTVSS
# VL: QIVLTQSPALMSASPGVKVTMTCSANSSVSYMYWYRQKPRSSPKPWIYLTSNLASGVPARFSGSGSGTSYSLTISSMEAEDAATYYCQQWSSNPPTFGSGTKLEIK
# notes: IgG4 (S241P), kappa; also called VH0/Vκ0 (control); Chimeric VH0/Vκ0
# B2: VH1/Vκ8 S29A (antibody, IgG4, V domains shown)
# VH: B1 VH with V5L, D10G, K13Q, K19R, A21S, T40A, D42G, R44G, D75S, S88A
# VL: EIVLTQSPATLSLSPGERATLSCRANSAVSYMYWYQQKPGQAPRPWIYLTSNRATGVPARFSGSGSGTDYTLTISSLEPEDFAVYYCQQWSSNPPTFGQGTKLEIK
# notes: IgG4 (S241P), kappa; also called Parent; Parent (VH1/Vκ8 S29A)
# B3: CP08H03/CP08F05 (antibody, V domains shown)
# VH: EVQLLESGGGLVQPGGSLRLSCAASGFIFSSHGMSWVRQAPGKGLEWVATISSGGTYTYYPDSVKGRFTISRDNSKNTLYLQMNSLKAEDTAMYYCARHDFDYFPYWFAHWGQGTLVTVSS
# VL: B2 VL with S91T
# notes: IgG4 (S241P), kappa
# B4: CP08H03/Vκ8 S29A (antibody, IgG4, V domains shown)
# VH: B3 VH
# VL: B2 VL
# notes: IgG4 (S241P), kappa; also called CP08_H03/Parent VL; CP08_H03/Parental
# Key:
# [1] = target: T1, CEACAM6 (recombinant protein); assay: SPR single-cycle kinetics, antibody captured on Protein A, CEACAM-6 injected at three rising concentrations [Cont.]
# Description: (§1) In order to assess the binding of the humanized, affinity matured reformatted lead IgGs, single-cycle kinetics analysis was performed on crude supernatants using a Biacore T200 running Biacore T200 Control Software V2.0.1 and Biacore T200 Evaluation Software V3.0. Antibodies were diluted in HBS-P+ to a final concentration of 0.5 μg/ml. At the start of each cycle, antibodies were loaded onto Fc2, Fc3 and Fc4 of the Protein A chip. IgGs were captured at a flow rate of 10 μl/min to give an immobilisation level (RL) of ˜100 RU (a level calculated to obtain a Rₘₐₓ of ˜50-150 RU once the analyte is bound). The surface was then allowed to stabilize. Single-cycle kinetics data was obtained with CEACAM1 as the analyte at a flow rate of 80 μl/min to minimize any potential mass transfer effects. Multiple repeats with the parent (VH1/Vκ8 S29A) antibody were performed to check the stability of the surface and analyte over the kinetic cycles. The signal from the reference channel Fc1 (no antibody) was subtracted from that of Fc2, Fc3 and Fc4 to correct for differences in non-specific binding to the reference surface. A three point, two-fold dilution range from 70 nM to 280 nM CEACAM1 without regeneration between each concentration was used. The signal from each antibody blank run (no CEACAM1) was subtracted to correct for differences in surface stability. The association phase for the three injections of increasing concentrations of CEACAM1 was monitored for 80 seconds each time and a single dissociation phase was measured for 150 seconds following the last injection of CEACAM1. Regeneration of the Protein A surface was conducted using two injections of 10 mM glycine-HCL pH 1.5 followed by a stabilization period of 250 seconds.
# (§2) To further assess the binding selectivity of CEACAM1 antibodies VH0/Vκ0, CP08H03/Vκ8 S29A, CP08H03/CP08F05 CEACAM1 over other proteins, binding affinities to CEACAM1, CEACAM3, CEACAM5, and CEACAM6 were compared using single-cycle kinetics analysis performed as described above. Single cycle kinetics was conducted using CEACAM concentrations from 280 nM to 70 nM.
# [2] = target: T2, CEACAM3 (recombinant protein); assay: SPR single-cycle kinetics, antibody captured on Protein A, CEACAM-3 injected at three rising concentrations
# Description: as §1, §2
# His-tagged CEACAM1 [3] = target: T3, His-tagged CEACAM1; assay: SPR single-cycle, purified IgG captured
# Summary of the method: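 Purified IgG was captured on a Series S Protein A chip in a Biacore T200 at 25° C in HBS-P+ (pH 7.4), with His-tagged CEACAM1 as the analyte in single-cycle kinetics surface plasmon resonance. Kon, koff and Kd were fitted from signals corrected for the reference channel and blank runs, and relative KD was calculated against the parent antibody tested alongside.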
# His-tagged CEACAM1 [4] = target: T3, His-tagged CEACAM1; assay: SPR single-cycle, supernatant IgG captured
# Summary of the method: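 IgG came from supernatants of HEK EBNA cells transiently transfected by PEI in 6-well plates and harvested 5-7 days later. Supernatants were quantified by ELISA and filtered. Single-cycle surface plasmon resonance was run on a Biacore T200 at 25° C in HBS-P+ (pH 7.4), with IgG captured on Protein A and His-tagged CEACAM1 as analyte. Kon, koff and Kd were fitted, and relative KD was calculated against the parent antibody assayed in the same experiment.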
Binder,binding result [1],binding result [2],Kd (His-tagged CEACAM1 [3]) [nM],koff (His-tagged CEACAM1 [3]) [s⁻¹],kon (His-tagged CEACAM1 [3]) [M⁻¹ s⁻¹],relative KD to parent (His-tagged CEACAM1 [3]),Kd (His-tagged CEACAM1 [4]) [nM],koff (His-tagged CEACAM1 [4]) [s⁻¹],kon (His-tagged CEACAM1 [4]) [M⁻¹ s⁻¹],relative KD to parent (His-tagged CEACAM1 [4])
B1,no binding,no binding,–,–,–,–,–,–,–,–
B2,–,–,480,0.19,400000,1,550,0.053,96000,1
B3,no binding,no binding,95,0.0069,73000,5,110,0.0074,70000,5.2
B4,no binding,no binding,120,0.0075,63000,4,130,0.0085,65000,4.2
